Assay results reported in the supplement of paper PMC10065799, “High-throughput profiling of sequence recognition by tyrosine kinases and SH2 domains using bacterial peptide display” (eLife, 2023).

How the values were obtained:
c-Src SH2 = experiment: SH2 binding enrichment of the phosphorylated peptide, bacterial display (enrichment ratio); higher = better substrate or ligand; peptides without Tyr show the background
Grb2 SH2 = Grb2 SH2 (UniProt P62993); experiment: as above
SHP2-C SH2 = experiment: as above
Fer (mouse) = experiment: phosphorylation enrichment, bacterial display (enrichment ratio); higher = better substrate or ligand; peptides without Tyr show the background
FGFR1 = FGFR1 (UniProt P11362); experiment: as above
EPHB1 = EPHB1 (UniProt P54762); experiment: as above
Fes = Fes (UniProt P07332); experiment: as above
EPHB2 = EPHB2 (UniProt P29323); experiment: as above
Jak2 = Jak2 (UniProt O60674); experiment: as above
FGFR3 = FGFR3 (UniProt P22607); experiment: as above
c-Abl (mouse) = experiment: as above
AncSZ = experiment: as above
c-Src = experiment: as above
Hck = Hck (UniProt P08631); experiment: as above
MERTK = MERTK (UniProt Q12866); experiment: as above
Fyn = Fyn (UniProt P06241); experiment: as above
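Wherever SH2 binding enrichment of the phosphorylated peptide, bacterial display is given: peptide library displayed on the E. coli surface as eCPX fusions, selected cells deep-sequenced, score is each peptide's frequency after selection divided by its frequency in the input.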
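Wherever phosphorylation enrichment, bacterial display is given: 11-residue human phosphosite peptides and single-mutation variants displayed on the E. coli surface, counted by deep sequencing, each peptide's frequency after selection divided by its frequency in the unselected input library; frequency after pTyr selection over input frequency; kinase dosed for 20-30% of maximal phosphorylation in three min.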

MERTK, sequence (Q12866 whole entry, looked up): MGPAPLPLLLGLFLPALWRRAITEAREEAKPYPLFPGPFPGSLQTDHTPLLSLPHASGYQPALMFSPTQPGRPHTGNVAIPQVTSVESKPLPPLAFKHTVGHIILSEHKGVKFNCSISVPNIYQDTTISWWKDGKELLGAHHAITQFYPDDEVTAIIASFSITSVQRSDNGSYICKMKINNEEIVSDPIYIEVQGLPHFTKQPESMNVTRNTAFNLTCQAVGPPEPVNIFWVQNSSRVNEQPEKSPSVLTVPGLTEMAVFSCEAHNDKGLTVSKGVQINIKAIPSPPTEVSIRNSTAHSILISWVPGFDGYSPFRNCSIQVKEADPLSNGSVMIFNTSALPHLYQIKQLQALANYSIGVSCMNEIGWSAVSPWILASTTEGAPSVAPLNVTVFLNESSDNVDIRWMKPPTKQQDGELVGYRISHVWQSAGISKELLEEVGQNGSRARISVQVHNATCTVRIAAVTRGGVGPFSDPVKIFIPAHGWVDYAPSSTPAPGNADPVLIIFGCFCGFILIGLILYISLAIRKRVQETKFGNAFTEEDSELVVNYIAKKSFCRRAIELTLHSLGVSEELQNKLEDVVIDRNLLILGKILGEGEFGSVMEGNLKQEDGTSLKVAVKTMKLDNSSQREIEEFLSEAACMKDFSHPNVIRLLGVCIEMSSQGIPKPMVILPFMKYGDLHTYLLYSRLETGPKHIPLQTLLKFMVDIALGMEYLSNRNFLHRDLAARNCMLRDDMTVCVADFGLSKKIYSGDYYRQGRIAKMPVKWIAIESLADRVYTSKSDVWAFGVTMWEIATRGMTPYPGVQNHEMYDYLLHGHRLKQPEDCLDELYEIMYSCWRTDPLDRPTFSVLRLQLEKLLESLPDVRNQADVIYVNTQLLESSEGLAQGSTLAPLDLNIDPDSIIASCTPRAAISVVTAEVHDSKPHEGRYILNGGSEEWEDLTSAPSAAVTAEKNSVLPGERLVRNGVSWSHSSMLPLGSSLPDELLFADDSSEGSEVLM
Fes, sequence (P07332 whole entry, looked up): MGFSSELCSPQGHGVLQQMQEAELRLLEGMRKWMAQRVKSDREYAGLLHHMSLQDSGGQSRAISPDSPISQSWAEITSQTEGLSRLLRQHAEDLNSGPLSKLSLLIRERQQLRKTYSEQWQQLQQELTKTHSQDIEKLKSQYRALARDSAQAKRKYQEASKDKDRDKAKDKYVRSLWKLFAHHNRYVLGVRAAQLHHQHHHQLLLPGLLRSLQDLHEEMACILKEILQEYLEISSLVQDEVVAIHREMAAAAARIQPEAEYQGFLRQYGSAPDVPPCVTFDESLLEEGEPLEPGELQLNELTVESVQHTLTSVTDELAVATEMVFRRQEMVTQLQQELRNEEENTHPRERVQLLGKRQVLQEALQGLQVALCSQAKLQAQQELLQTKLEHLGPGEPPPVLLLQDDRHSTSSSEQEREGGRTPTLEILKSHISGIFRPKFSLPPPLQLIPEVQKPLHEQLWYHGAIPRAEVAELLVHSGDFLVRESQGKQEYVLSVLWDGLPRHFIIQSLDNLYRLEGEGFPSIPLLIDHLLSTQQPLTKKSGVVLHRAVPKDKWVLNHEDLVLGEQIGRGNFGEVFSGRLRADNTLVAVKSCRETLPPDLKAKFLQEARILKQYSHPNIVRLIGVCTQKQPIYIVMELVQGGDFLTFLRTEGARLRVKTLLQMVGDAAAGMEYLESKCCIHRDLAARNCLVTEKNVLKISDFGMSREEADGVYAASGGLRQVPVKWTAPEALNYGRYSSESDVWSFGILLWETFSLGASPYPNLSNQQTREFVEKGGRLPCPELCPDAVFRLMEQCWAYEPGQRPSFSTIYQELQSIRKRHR
Grb2 SH2, sequence (P62993 whole entry, looked up): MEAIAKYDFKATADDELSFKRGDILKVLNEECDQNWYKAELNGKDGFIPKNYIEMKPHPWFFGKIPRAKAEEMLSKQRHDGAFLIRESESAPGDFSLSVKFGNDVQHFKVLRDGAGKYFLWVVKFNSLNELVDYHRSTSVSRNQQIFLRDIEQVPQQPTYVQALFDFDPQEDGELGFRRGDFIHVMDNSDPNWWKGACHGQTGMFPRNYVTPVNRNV
FGFR3, sequence (P22607 whole entry, looked up): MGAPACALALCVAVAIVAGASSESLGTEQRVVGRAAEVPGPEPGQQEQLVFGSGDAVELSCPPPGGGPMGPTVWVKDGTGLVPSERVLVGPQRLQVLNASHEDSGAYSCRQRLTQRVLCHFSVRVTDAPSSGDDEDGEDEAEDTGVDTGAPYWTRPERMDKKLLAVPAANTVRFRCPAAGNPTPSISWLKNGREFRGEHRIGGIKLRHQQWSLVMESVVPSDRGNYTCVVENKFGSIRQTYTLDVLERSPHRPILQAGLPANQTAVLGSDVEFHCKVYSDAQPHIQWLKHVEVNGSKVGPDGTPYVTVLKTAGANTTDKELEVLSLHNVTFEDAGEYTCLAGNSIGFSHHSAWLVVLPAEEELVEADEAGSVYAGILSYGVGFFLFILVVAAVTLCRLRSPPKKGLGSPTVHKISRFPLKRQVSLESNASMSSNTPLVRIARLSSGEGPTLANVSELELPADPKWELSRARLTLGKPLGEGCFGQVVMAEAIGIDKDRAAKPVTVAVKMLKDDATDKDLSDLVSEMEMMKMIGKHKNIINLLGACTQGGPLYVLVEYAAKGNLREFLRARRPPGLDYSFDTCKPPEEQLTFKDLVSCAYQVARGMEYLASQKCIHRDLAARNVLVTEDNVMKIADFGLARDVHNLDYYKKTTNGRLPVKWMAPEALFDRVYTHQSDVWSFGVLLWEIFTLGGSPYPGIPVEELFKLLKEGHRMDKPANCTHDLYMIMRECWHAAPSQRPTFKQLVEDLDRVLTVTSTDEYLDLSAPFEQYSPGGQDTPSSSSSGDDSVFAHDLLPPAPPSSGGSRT
Jak2, sequence (O60674 whole entry, looked up): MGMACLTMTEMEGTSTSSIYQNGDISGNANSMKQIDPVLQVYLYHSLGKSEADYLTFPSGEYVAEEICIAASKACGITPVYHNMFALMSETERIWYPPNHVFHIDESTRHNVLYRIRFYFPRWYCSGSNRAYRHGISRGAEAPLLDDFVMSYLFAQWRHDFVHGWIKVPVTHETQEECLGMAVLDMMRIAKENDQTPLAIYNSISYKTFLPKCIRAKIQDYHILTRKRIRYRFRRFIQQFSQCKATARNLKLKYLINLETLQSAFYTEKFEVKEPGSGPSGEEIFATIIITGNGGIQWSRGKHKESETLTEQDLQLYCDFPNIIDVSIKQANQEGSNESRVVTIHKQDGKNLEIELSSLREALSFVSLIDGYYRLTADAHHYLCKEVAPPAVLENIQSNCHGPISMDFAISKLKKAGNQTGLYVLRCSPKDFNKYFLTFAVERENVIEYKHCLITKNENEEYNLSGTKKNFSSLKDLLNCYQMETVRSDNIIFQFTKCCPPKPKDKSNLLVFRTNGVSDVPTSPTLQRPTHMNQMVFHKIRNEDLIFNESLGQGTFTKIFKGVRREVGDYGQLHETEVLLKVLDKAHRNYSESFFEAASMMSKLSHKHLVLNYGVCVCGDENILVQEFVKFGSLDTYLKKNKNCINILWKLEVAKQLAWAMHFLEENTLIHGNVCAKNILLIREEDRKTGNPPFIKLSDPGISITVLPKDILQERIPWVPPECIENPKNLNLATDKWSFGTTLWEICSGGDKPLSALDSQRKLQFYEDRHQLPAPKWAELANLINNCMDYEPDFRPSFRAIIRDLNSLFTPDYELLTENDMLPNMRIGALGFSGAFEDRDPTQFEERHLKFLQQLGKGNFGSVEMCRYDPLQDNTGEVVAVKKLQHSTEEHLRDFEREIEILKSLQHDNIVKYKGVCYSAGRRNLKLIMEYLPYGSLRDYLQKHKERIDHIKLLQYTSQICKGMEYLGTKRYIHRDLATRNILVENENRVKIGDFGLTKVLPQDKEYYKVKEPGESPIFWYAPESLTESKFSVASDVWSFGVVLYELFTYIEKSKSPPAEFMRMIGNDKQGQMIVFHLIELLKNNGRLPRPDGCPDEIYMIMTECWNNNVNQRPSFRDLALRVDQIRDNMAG
FGFR1, sequence (P11362 whole entry, looked up): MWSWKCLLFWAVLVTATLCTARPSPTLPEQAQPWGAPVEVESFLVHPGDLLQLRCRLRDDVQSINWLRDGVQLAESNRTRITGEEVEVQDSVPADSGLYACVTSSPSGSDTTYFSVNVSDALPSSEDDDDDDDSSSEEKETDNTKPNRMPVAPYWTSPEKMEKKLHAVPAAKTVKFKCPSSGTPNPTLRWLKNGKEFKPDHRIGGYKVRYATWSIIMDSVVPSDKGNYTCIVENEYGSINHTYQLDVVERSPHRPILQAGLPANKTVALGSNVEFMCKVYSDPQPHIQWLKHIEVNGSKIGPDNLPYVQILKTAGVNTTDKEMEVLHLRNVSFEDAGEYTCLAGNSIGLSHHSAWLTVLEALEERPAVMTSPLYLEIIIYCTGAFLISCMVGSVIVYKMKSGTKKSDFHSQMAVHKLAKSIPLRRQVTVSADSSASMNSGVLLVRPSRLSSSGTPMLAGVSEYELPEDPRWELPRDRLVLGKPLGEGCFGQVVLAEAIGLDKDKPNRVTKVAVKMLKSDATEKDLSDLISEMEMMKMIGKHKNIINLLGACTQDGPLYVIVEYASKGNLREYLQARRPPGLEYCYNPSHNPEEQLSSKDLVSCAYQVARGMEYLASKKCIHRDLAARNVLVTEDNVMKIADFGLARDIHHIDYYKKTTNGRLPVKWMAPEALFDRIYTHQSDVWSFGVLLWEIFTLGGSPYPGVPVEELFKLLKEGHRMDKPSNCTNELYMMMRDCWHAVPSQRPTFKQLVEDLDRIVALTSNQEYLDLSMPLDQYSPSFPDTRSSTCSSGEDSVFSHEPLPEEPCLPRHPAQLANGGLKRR

Sequence | SH2 binding enrichment (c-Src SH2) | SH2 binding enrichment (Grb2 SH2) | SH2 binding enrichment (SHP2-C SH2) | phosphorylation enrichment (Fer (mouse)) | phosphorylation enrichment (FGFR1) | phosphorylation enrichment (EPHB1) | phosphorylation enrichment (Fes) | phosphorylation enrichment (EPHB2) | phosphorylation enrichment (Jak2) | phosphorylation enrichment (FGFR3) | phosphorylation enrichment (c-Abl (mouse)) | phosphorylation enrichment (AncSZ) | phosphorylation enrichment (c-Src) | phosphorylation enrichment (Hck) | phosphorylation enrichment (MERTK) | phosphorylation enrichment (Fyn)
KTSGNYLPVTG [WDR19_Y28_A30P] | 0.493 | 0.758 | 0.913 | 0.359 | 0.369 | 0.474 | 0.543 | 0.435 | 0.524 | 0.37 | 0.446 | 0.519 | 0.402 | 0.405 | 0.598 | 0.41
IENPQYFSDAC [NTRK1_Y496] | 0.524 | 0.789 | 1.02 | 0.524 | 0.673 | 0.648 | 1.24 | 0.616 | 1.14 | 0.962 | 1.01 | 1.13 | 0.542 | 0.626 | 0.546 | 0.516
VNNAVYGIDAM [EIF3J_Y143] | 0.507 | 0.771 | 0.763 | 0.486 | 0.506 | 0.417 | 0.88 | 0.437 | 0.764 | 0.502 | 0.509 | 0.86 | 1 | 0.829 | 0.426 | 1.09
SASSSYSRSRS [SRRM4_Y549_R547S] | 0.393 | 0.967 | 0.638 | 0.386 | 0.378 | 0.275 | 0.482 | 0.487 | 0.451 | 0.46 | 0.408 | 0.555 | 0.432 | 0.412 | 0.447 | 0.462
AQINLYQDVML [ZNF806_Y33] | 0.685 | 0.886 | 0.68 | 15.4 | 1.14 | 15 | 2.83 | 8.39 | 1.01 | 1.29 | 0.928 | 1.25 | 1.05 | 2.05 | 2.17 | 1.15
SGPRRYNIAAL [TTR_Y125_T126N] | 0.419 | 0.556 | 0.551 | 0.432 | 0.505 | 0.285 | 0.52 | 0.343 | 0.511 | 0.394 | 0.452 | 0.572 | 0.409 | 0.43 | 0.411 | 0.377
TLLPDYEDEEE [ZNF830_Y159_S154T] | 0.635 | 1.06 | 0.815 | 0.788 | 0.683 | 0.925 | 1.28 | 0.962 | 1.1 | 0.938 | 0.846 | 1.64 | 0.62 | 0.709 | 0.546 | 0.605
KASGKYYAMKI [AKT3_Y173] | 1.45 | 1.38 | 1.21 | 0.335 | 0.565 | 0.329 | 0.563 | 0.411 | 0.431 | 0.536 | 0.518 | 0.499 | 0.399 | 0.529 | 0.455 | 0.359
GQRDLYSGLNQ [CD3E_Y199] | 0.822 | 0.852 | 0.574 | 4.76 | 0.449 | 2.25 | 0.749 | 2.35 | 0.594 | 0.583 | 1.06 | 1.11 | 6.88 | 12.4 | 5.2 | 6.14
LVMFIYDIFGM [SCN1A_Y1684_A1685D] | 1.67 | 1.74 | 2.28 | 3.13 | 1.66 | 2.11 | 3.08 | 2.92 | 1.72 | 1.9 | 1.55 | 5.48 | 6.25 | 5.56 | 5.95 | 8.72
GNLLIYTDFGK [HGD_Y166_E168D] | 0.765 | 0.891 | 0.822 | 0.726 | 0.682 | 3.06 | 1.27 | 1.27 | 1.09 | 0.702 | 1.53 | 1.08 | 4.63 | 3.49 | 3.44 | 4.75
SAEEDYMADAK [KCNT1_Y876] | 0.525 | 0.901 | 0.758 | 0.632 | 0.634 | 0.733 | 1.36 | 0.662 | 1.25 | 0.843 | 0.686 | 1.3 | 0.473 | 0.586 | 0.486 | 0.652
VAMELYVFGGV [GAN_Y471] | 0.395 | 0.808 | 0.685 | 0.574 | 0.513 | 0.799 | 1.64 | 0.681 | 1.37 | 0.781 | 1.05 | 1.28 | 1.13 | 0.535 | 0.928 | 0.533
TNIKRYHIAKG [HARS1_Y150_V155G] | 0.867 | 0.93 | 0.972 | 0.33 | 0.351 | 0.311 | 0.479 | 0.39 | 0.368 | 0.356 | 0.503 | 0.506 | 0.408 | 0.367 | 0.405 | 0.409
TRDVNYGWVIR [MT-CYB_Y75_I78V] | 0.654 | 1.13 | 0.604 | 1.05 | 0.612 | 0.947 | 1.45 | 1.27 | 1.22 | 0.869 | 0.841 | 1.16 | 0.576 | 0.806 | 1.12 | 0.647
